# Measurements published in US20260116967A1 (CSPC MEGALITH BIOPHARMACEUTICAL, published 2026).
# T1: recombinant human PVRIG protein (PVRIG extracellular full-length protein) (human, UniProt Q6DKI7 41-171)
# T1 construct: also called recombinant PVRIG protein; soluble PVRIG
# T1 sequence: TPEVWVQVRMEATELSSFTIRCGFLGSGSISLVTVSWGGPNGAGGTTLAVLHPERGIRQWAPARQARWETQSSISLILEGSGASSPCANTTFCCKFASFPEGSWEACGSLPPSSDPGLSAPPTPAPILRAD
# T2: human PVRIG-His protein (human, UniProt Q6DKI7 41-171, limits assumed)
# T2 construct: not shown: His tag
# T2 sequence (looked up): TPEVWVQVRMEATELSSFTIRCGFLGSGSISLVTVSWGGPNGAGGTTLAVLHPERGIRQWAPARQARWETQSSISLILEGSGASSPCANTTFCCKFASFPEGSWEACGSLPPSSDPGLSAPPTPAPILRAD
# T3: PVRIG-hFc protein (human, UniProt Q6DKI7 41-171, limits assumed)
# T3 construct: also called human PVRIG protein; not shown: human Fc (hFc)
# T3 sequence (looked up): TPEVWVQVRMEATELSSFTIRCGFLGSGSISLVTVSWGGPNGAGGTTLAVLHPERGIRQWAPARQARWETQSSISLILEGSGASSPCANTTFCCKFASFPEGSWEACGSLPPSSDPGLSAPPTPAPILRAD
# T4: human PVRIG on Jurkat-hPVRIG cells (human, UniProt Q6DKI7 41-326)
# T4 construct: whole, on cells; also called PVRIG on cell surface; effector cells stably expressing PVRIG
# T4 sequence (looked up): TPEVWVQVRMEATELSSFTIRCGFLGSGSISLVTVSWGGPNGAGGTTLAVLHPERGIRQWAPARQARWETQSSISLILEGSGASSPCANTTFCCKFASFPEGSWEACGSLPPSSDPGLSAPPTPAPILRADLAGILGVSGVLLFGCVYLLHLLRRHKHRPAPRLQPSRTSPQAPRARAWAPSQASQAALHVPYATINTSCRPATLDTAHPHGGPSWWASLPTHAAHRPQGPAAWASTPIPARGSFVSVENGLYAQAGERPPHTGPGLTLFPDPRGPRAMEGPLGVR
# T5: cynomolgus monkey PVRIG on 293T-cynoPVRIG cells (cynomolgus monkey, UniProt A0A2K5WVV8 41-322)
# T5 construct: whole, on cells; also called full-length monkey PVRIG
# T5 sequence: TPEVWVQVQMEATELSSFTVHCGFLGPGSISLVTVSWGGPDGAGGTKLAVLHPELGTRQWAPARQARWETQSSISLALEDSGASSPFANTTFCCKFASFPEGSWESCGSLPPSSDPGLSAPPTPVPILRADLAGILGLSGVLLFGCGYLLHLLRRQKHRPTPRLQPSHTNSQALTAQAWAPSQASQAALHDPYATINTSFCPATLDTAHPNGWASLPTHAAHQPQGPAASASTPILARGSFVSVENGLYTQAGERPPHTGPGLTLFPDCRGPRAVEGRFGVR
# T6: recombinant cynomolgus monkey (Cyno) PVRIG protein (cynomolgus monkey, UniProt A0A2K5WVV8 41-171)
# T6 construct: also called soluble cynomolgus monkey PVRIG
# T6 sequence: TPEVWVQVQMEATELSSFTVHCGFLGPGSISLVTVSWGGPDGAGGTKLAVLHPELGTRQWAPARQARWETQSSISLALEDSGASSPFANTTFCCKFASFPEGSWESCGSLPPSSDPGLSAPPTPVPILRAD
# B1: 21F10C10-hIgG1 (antibody, V domains shown)
# VH: QVQLQQSGAELVRPGTSVKVSCKASGYAFINNFIEWVKQRPGQGLEWIGVINPGSGDANYNEKFKGKATLTADKSSTTAYIQLSSLTSDDSAVYFCASHWLAYWGQGTLVTVSA
# VL: DIVMTQSPSSLSVSAGEKVTMSCKSSQSLLSSGNQKNYLAWYQQKPGQPPKLLIYGASTRESGVPDRFTGSGSGTDFTLTISSVQAEDLAVYYCQNGHFYPYTFGGGTKLEIK
# notes: also called 21F10C10 chimeric antibody
# B2: Hab21F10C10.12 (antibody, V domains shown)
# VH: QVQLVQSGAEVKKPGASVKVSCKASGYTFINNFIEWVRQAPGQGLEWMGVINPGSGDANYAQKFQGRVTMTRDTSISTAYMELSRLRSDDTAVYYCASHWLAYWGQGTTVTVSS
# VL: EIVMTQSPPTLSLSPGERVTLSCRSSQSLLSSGNQKNYLSWYQQKPGQAPRLLIYGASTRETGIPARFSGSGSGTDFTLTISSLQPEDFAVYYCQNGHFYPYTFGGGTKLEIK
# notes: Humanized antibody; also called Hab21F10C10-VH.1d + Hab21F10C10-VL.1c
# B3: 43F7C9-hIgG1 (antibody, V domains shown)
# VH: DVQLQESGPGLVKPSQSLSLTCTVTGYSITSDYAWNWIRQFPGNRLEWMGYIRYNGNTNYNPSLKSRISITRDTSKNQFFLQLNSVTTEDTATYYCAIIYYDYDGFVYWGQGTLVTVSA
# VL: DILLTQSPATLSVTPGETVSLSCRASQNVYENLHWYQQKSHRSPRLLIKFASDSISGIPSRFTGSGSGTDYTLSINSVKPEDEGIYYCLQLYSTPYTFGGGTELEIK
# notes: also called 43H7C9-hIgG1; 43H7C9
# B4: Hab43F7C9.12 (antibody, V domains shown)
# VH: QVQLQESGPGLVKPSETLSLTCTVSGYSISSDYAWNWIRQPPGKGLEWIGYIRYNGNTNYNPSLKSRVTISVDTSKNQFSLKLSSVTAADTAVYYCAIIYYDYDGFVYWGQGTTVTVSS
# VL: DIQMTQSPSSLSASVGDRVTITCRASQNVYENLHWYQQKPGKAPKLLIKFASDSISGVPSRFSGSGSGTDFTLTISSLQPEDFATYYCLQLYSTPYTFGGGTKLEIK
# notes: Humanized antibody; also called Hab43F7C9-VH.1d + Hab43F7C9-VL.1c; 43H7C9.12
# B5: SRF813-IgG1 (antibody, V domains shown)
# VH: QVQLVQSGAEVKKPGSSVKVSCKASGGTFSSAAISWVRQAPGQGLEWMGNIIPIVGIANYAQKFQGRVTITADESTSTAYMELSSLRSEDTAVYYCARDTGRGYTRHFWFDPWGQGTLVTVSS
# VL: DIQMTQSPSSLSASVGDRVTITCRASQSISSYLNWYQQKPGKAPKLLIYAASSLQSGVPSRFSGSGSGTDFTLTISSLQPEDFATYYCQQSDILYTFGGGTKVEIK
# B6: Hab1B10E8.6 (antibody, V domains shown)
# VH: QVQLVQSGAEVKKPGASVKVSCKASGYSFPSYWMHWVRQAPGQGLEWIGEINPSNGLTNYNEQFRNRVTMTVDTSTSTVYMELSSLRSEDTAVYYCARHHGSTYYALDSWGQGTLVTVSS
# VL: DIVMTQSPDSLAVSLGERATINCKSSQSLLNSINQKNFLAWYQQKPGQPPKLLVYFASTRESGVPDRFSGSGSGTDFTLTISSLQAEDVAVYFCQQHYSTPPTFGGGTKLEIK
# notes: Humanized antibody; also called Hab1B10E8-VH.1b + Hab1B10E8-VL.1b
# How the values were obtained:
# [1] = biological target: T1, recombinant human PVRIG protein (PVRIG …); test: ELISA, PVRIG extracellular protein coated at 500 ng/ml
# Procedure: VH and VL were respectively constructed into a eukaryotic expression vector comprising hIgG1-kappa constant region. The obtained eukaryotic expression vector was transiently transfected into HEK-293 cells and cultured for 6 days. The culture supernatant was harvested and purified by Protein A to obtain target antibodies, which were named 21F10C10-hIgG1 and 43F7C9-hIgG1, respectively. The affinity of the antibodies to the recombinant PVRIG protein was determined by ELISA. The PVRIG extracellular full-length protein diluted to a concentration of 500 ng/ml was coated on the ELISA plate. The plate was washed 3 times with PBST buffer, and then 200 μl of PBS buffer containing 2% BSA was added, and the plate was blocked at 37° C. for 2 h. After the blocking was completed, the plate was washed 3 times with PBST buffer; 3-fold gradient dilutions of the test antibody (0-33.3 nM) were added, incubated at 37° C. for 2 h; then the plate was washed 3 times with PBST buffer. Horseradish peroxidase-labeled goat anti-human antibody was added, incubated at 37° C. for 1 h; then the plate was washed three times with PBST buffer. TMB single-component color developing solution was added for color development, reading the absorbance value after adding the stop solution.
# human PVRIG-His protein = biological target: T2, human PVRIG-His protein; test: BLI (Fortebio), PVRIG-His on HIS1K biosensor, antibody as analyte
# Procedure: The HIS1K biosensor was used, and human PVRIG-His protein was immobilized on the biosensor to a binding response threshold of 0.3 nm. After a 120 s baseline step, the sensor was immersed in an anti-PVRIG antibody diluted with 0.02% PBST buffer, with a starting antibody concentration of 25 nM, performing gradient dilution of 2-fold concentration with 7 gradients set. The binding and dissociation time of the immobilized substance and the analyte were 120 s and 300 s, respectively. The affinity data of antigen and antibody was calculated by regression analysis software based on the binding curve.
# [2] = biological target: T1, recombinant human PVRIG protein (PVRIG …); test: ELISA, human PVRIG protein coated at 500 ng/ml
# Procedure: The affinity of humanized antibody to recombinant human PVRIG protein was determined by ELISA. The PVRIG protein was diluted to 500 ng/ml, and coated on the ELISA plate. After blocking, 3-fold gradient dilution of antibody (0-66.7 nM) was added, then performed color development and reading after incubation with goat anti-human secondary antibody.
# PVRIG-hFc protein [3] = biological target: T3, PVRIG-hFc protein; test: blocking ELISA: antibody titrated against PVRIG-hFc binding to coated CD112-His
# Procedure: The ELISA method was used to determine the ability of humanized PVRIG antibody to block the binding of human CD112 protein to human PVRIG protein. The CD112-His protein was diluted to a concentration of 1 μg/ml, and coated on the ELISA plate. A 3-fold gradient dilution of the antibody (0-133 nM) was mixed with the PVRIG-hFc protein and added to the coated ELISA plate to incubate at 37° C. for 1 hour. After washing the plate, the HRP-labeled goat anti-human Fc antibody was added to incubate at 37° C. for 1 hour. After washing the plate, the color developing solution was added, then adding the stop solution after 5 minutes and reading the results. The blocking results of the antibodies obtained are shown in FIG. 6 and Table 12 after GraphPad fitting. […] At the same time, Hab1B10E8.6, Hab21F10C10.12 and Hab43F7C9.12 have better ELISA blocking ability than the control molecule SRF813.
# [4] = biological target: T4, human PVRIG on Jurkat-hPVRIG cells; test: flow cytometry on Jurkat-hPVRIG cells
# Procedure: The cells were inoculated at a density of 2×10⁶/ml in 96-well plate, 100 μl/well. 4-fold gradient dilutions of antibodies (0-66.7 nM) were added to incubate at 4° C. for 1 h. Goat anti-human secondary antibody was added, and the cells were labeled in the dark at 4° C. for 45 min. After the cells were collected and washed, the fluorescence intensity of the cells was read by flow cytometry. […] At the same time, the affinity of Hab43F7C9.12 in recognizing cell surface PVRIG is better than that of the control molecule SRF813.
# [5] = biological target: T4, human PVRIG on Jurkat-hPVRIG cells; test: cell-based or functional assay
# PVRIG-hFc protein [6] = biological target: T3, PVRIG-hFc protein; test: blocking flow cytometry: antibody titrated against PVRIG-hFc (1 ug/ml) binding to 293T-CD112 cells
# Procedure: The cells were washed three times with FACS buffer, and then labeled with Alexa Fluor 488-labeled goat anti-human IgG antibody at 4° C. in the dark for 50 min. Then the cells were washed three times with FACS buffer, and the fluorescence intensity of the cells was read by flow cytometry.
# [7] = biological target: T5, cynomolgus monkey PVRIG on …; test: flow cytometry on 293T-cynoPVRIG cells
# Procedure: The cells were seeded in a 96-well plate at a density of 2×10⁶, 100 μl/well, then washed three times with FACS buffer and the supernatant was discarded. Antibodies diluted with PBS buffer (0-2.5 nM) in a gradient were added to incubate at 4° C. for 1 h. The cells were washed three times with FACS buffer, and then labeled with Alexa Fluor 488-labeled goat anti-human IgG antibody at 4° C. in the dark for 45 min. The cells were washed three times with FACS buffer, and the fluorescence intensity of the cells was read by flow cytometry.
# [8] = biological target: T6, recombinant cynomolgus monkey (Cyno) …; test: ELISA, Cyno-PVRIG protein coated at 500 ng/ml
# Procedure: The affinity of humanized antibody to recombinant cynomolgus monkey (Cyno) PVRIG protein was determined by ELISA. The Cyno-PVRIG protein was diluted to 500 ng/ml, and coated on the ELISA plate. After blocking, a 3-fold gradient dilution of the antibody (0-33.3 nM) was added. After incubation with goat anti-human secondary antibody for 1 hour, the plate was washed and the color was developed to read.
binder,measurement,setting,value
B1,EC50,[1],0.122 nM
B2,Kd,human PVRIG-His protein,< 0.001 nM
same,koff,human PVRIG-His protein,< 1e-07 s⁻¹
same,kon,human PVRIG-His protein,837000 M⁻¹ s⁻¹
same,EC50,[2],0.165 nM
same,EC50,PVRIG-hFc protein [3],0.226 nM
same,EC50,[4],0.0553 nM
same,EC50 (nM) of reporter genes,[5],0.164 nM
same,EC50,PVRIG-hFc protein [6],2.52 nM
same,EC50,[7],0.267 nM
same,EC50,[8],0.364 nM
B3,EC50,[1],0.29 nM
B4,Kd,human PVRIG-His protein,< 0.001 nM
same,koff,human PVRIG-His protein,< 1e-07 s⁻¹
same,kon,human PVRIG-His protein,963000 M⁻¹ s⁻¹
same,EC50,[2],0.145 nM
same,EC50,PVRIG-hFc protein [3],0.258 nM
same,EC50,[4],0.0178 nM
same,EC50 (nM) of reporter genes,[5],0.0651 nM
same,EC50,PVRIG-hFc protein [6],1.46 nM
same,EC50,[7],0.108 nM
same,EC50,[8],0.0797 nM
B5,EC50,PVRIG-hFc protein [3],0.431 nM
same,EC50,[4],0.0497 nM
same,EC50 (nM) of reporter genes,[5],0.963 nM
same,EC50,[7],0.15 nM
B6,Kd,human PVRIG-His protein,< 0.001 nM
same,koff,human PVRIG-His protein,< 1e-07 s⁻¹
same,kon,human PVRIG-His protein,782000 M⁻¹ s⁻¹
same,EC50,[2],0.0869 nM
same,EC50,PVRIG-hFc protein [3],0.285 nM
same,EC50,[4],0.0501 nM
same,EC50 (nM) of reporter genes,[5],0.184 nM
same,EC50,PVRIG-hFc protein [6],2.56 nM
same,EC50,[7],0.124 nM
same,EC50,[8],0.141 nM
